# T1: Peptide J (pig PAR-2) (Pig (Sus scrofa))
# T1 peptide: GTSRPSKGRSLIGKADNT
# T2: C-terminal biotinylated human PAR-2 peptide SEQ ID NO:871 (wild-type) (human, not fully specified; C-terminal biotin (K-B))
# T2 construct: also called WT peptide
# T2 peptide: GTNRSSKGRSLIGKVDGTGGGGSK
# T3: C-terminal biotinylated human PAR-2 14-mer peptide SEQ ID NO:884 (SLIGKVDGTSHVTG, wild-type) (human, not fully specified; C-terminal biotin (K-B))
# T3 peptide: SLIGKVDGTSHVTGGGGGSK
# T4: C-terminal biotinylated human PAR-2 peptide SEQ ID NO:880 (Asp-43 to Ala) (human, not fully specified; C-terminal biotin (K-B))
# T4 construct: alanine-scan mutant
# T4 peptide: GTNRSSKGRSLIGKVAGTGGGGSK
# T5: C-terminal biotinylated human PAR-2 14-mer peptide SEQ ID NO:887 (Val-42 and Asp-43 to Ala) (human, not fully specified; C-terminal biotin (K-B))
# T5 peptide: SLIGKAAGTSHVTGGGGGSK
# T6: C-terminal biotinylated human PAR-2 peptide SEQ ID NO:876 (Ile-39 to Ala) (human, not fully specified; C-terminal biotin (K-B))
# T6 construct: alanine-scan mutant
# T6 peptide: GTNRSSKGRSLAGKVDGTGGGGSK
# T7: C-terminal biotinylated human PAR-2 peptide SEQ ID NO:877 (Gly-40 to Ala) (human, not fully specified; C-terminal biotin (K-B))
# T7 construct: alanine-scan mutant
# T7 peptide: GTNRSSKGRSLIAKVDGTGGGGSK
# T8: C-terminal biotinylated human PAR-2 peptide SEQ ID NO:874 (Ser-37 to Ala) (human, not fully specified; C-terminal biotin (K-B))
# T8 construct: alanine-scan mutant
# T8 peptide: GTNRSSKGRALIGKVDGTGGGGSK
# T9: C-terminal biotinylated human PAR-2 peptide SEQ ID NO:878 (Lys-41 to Ala) (human, not fully specified; C-terminal biotin (K-B))
# T9 construct: alanine-scan mutant
# T9 peptide: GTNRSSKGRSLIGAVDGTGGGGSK
# T10: C-terminal biotinylated human PAR-2 peptide SEQ ID NO:875 (Leu-38 to Ala) (human, not fully specified; C-terminal biotin (K-B))
# T10 construct: alanine-scan mutant
# T10 peptide: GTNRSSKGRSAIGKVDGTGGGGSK
# T11: C-terminal biotinylated human PAR-2 peptide SEQ ID NO:872 (Gly-35 to Ala) (human, not fully specified; C-terminal biotin (K-B))
# T11 construct: alanine-scan mutant
# T11 peptide: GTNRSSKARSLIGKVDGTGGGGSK
# T12: C-terminal biotinylated human PAR-2 14-mer peptide SEQ ID NO:886 (Asp-43 to Ala) (human, not fully specified; C-terminal biotin (K-B))
# T12 peptide: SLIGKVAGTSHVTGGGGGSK
# T13: C-terminal biotinylated human PAR-2 peptide SEQ ID NO:879 (Val-42 to Ala) (human, not fully specified; C-terminal biotin (K-B))
# T13 construct: alanine-scan mutant
# T13 peptide: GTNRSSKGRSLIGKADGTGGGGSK
# T14: C-terminal biotinylated human PAR-2 14-mer peptide SEQ ID NO:885 (Val-42 to Ala) (human, not fully specified; C-terminal biotin (K-B))
# T14 peptide: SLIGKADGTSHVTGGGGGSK
# T15: C-terminal biotinylated human PAR-2 peptide SEQ ID NO:881 (Gly-44 to Ala) (human, not fully specified; C-terminal biotin (K-B))
# T15 construct: alanine-scan mutant
# T15 peptide: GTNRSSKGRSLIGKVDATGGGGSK
# T16: C-terminal biotinylated human PAR-2 peptide SEQ ID NO:882 (Thr-45 to Ala) (human, not fully specified; C-terminal biotin (K-B))
# T16 construct: alanine-scan mutant
# T16 peptide: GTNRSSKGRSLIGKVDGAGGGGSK
# Key:
# Peptide J (pig PAR-2) = molecular target: T1, Peptide J (pig PAR-2); test: SPR, antibody captured
# Method: Equilibrium dissociation constants (KD values) for antigen binding to selected purified PAR-2 antibodies were determined by surface kinetics using a real-time surface plasmon resonance biosensor assay. Antibody was captured on either a rabbit anti-mouse IgG polyclonal antibody (GE Healthcare, Piscataway, N.J.) surface or a goat anti-human IgG polyclonal antibody (Jackson Immuno Research Lab, West Grove, Pa.) surface created through direct amine chemical coupling to a BIACORE™ CM5 sensor chip to form a captured antibody surface. […] Antigen-antibody binding and dissociation were monitored in real time at room temperature. Kinetic analysis was performed to calculate KD and half-life of antigen/antibody complex dissociation (Table 10). For those antibodies where no T_{1/2} value is shown, steady state analysis was used to calculate the KD value. NB: no binding observed under current experimental conditions. ND: not determined.
# [1] = molecular target: T2, C-terminal biotinylated human PAR-2 …; test: BLI Exp2
# Method: (§1) In order to more particularly identify the amino acids of PAR-2 with which the PAR-2 antibodies interact, an alanine scanning study was carried out using peptides comprising the activating PAR-2 protease cleavage site.
# (§2) The ability of each peptide mutant to bind to PAR-2 antibodies was measured using biolayer interferometry (Octet Red; ForteBio). Each peptide (2.5 μg/ml) was captured on streptavidin coated biosensor tips (Octet SA sensor) for 10 seconds. To measure binding and dissociation between each peptide and PAR-2 antibody, the peptide-coated biosensors were contacted with 200 nM solutions of PAR-2 antibodies for 5 minutes (binding) followed by transfer to buffer with no antibody for 10 min (dissociation). […] The results are expressed as percent binding and percent T_{1/2} relative to WT peptide (Tables 24-28).
# [2] = molecular target: T3, C-terminal biotinylated human PAR-2 …; test: BLI Exp2
# Method: as §1, §2
# [3] = molecular target: T4, C-terminal biotinylated human PAR-2 …; test: BLI Exp2
# Method: as §1, §2
# [4] = molecular target: T5, C-terminal biotinylated human PAR-2 …; test: BLI Exp2
# Method: as §1, §2
# [5] = molecular target: T6, C-terminal biotinylated human PAR-2 …; test: BLI Exp2
# Method: as §1, §2
# [6] = molecular target: T7, C-terminal biotinylated human PAR-2 …; test: BLI Exp2
# Method: as §1, §2
# [7] = molecular target: T8, C-terminal biotinylated human PAR-2 …; test: BLI Exp2
# Method: as §1, §2
# [8] = molecular target: T9, C-terminal biotinylated human PAR-2 …; test: BLI Exp2
# Method: as §1, §2
# [9] = molecular target: T10, C-terminal biotinylated human PAR-2 …; test: BLI Exp2
# Method: as §1, §2
# [10] = molecular target: T11, C-terminal biotinylated human PAR-2 …; test: BLI Exp2
# Method: as §1, §2
# [11] = molecular target: T12, C-terminal biotinylated human PAR-2 …; test: BLI Exp2
# Method: as §1, §2
# [12] = molecular target: T13, C-terminal biotinylated human PAR-2 …; test: BLI Exp2
# Method: as §1, §2
# [13] = molecular target: T14, C-terminal biotinylated human PAR-2 …; test: BLI Exp2
# Method: as §1, §2
# [14] = molecular target: T15, C-terminal biotinylated human PAR-2 …; test: BLI Exp2
# Method: as §1, §2
# [15] = molecular target: T16, C-terminal biotinylated human PAR-2 …; test: BLI Exp2
# Method: as §1, §2
# full length human PAR-2 = full length human PAR-2 (human, UniProt P55085 26-397); test: cell-based or functional assay
# [16] = molecular target: T11, C-terminal biotinylated human PAR-2 …; test: BLI Exp1
# Method: as §1, §2
# full length human PAR-2, sequence (P55085 26-397 G138A limits assumed): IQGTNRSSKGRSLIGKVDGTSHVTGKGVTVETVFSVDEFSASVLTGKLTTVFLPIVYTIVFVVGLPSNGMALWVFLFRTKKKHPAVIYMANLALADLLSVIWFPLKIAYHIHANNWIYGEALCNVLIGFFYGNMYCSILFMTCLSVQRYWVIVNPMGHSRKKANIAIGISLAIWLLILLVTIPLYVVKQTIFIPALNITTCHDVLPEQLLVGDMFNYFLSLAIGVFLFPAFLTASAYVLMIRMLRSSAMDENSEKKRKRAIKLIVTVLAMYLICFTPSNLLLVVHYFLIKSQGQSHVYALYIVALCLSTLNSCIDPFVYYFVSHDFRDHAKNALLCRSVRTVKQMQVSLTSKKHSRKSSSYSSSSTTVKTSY
Binder,% Rel Binding [1],% Rel T1/2 [1],% Rel Binding [2],% Rel T1/2 [2],% Rel Binding [3],% Rel T1/2 [3],binding result [4],% Rel Binding [5],% Rel T1/2 [5],% Rel Binding [6],% Rel T1/2 [6],% Rel Binding [7],% Rel T1/2 [7],% Rel Binding [8],% Rel T1/2 [8],% Rel Binding [9],% Rel T1/2 [9],% Rel Binding [10],% Rel T1/2 [10],binding result [11],also measured
"H4H583P (antibody, human IgG4, V domains shown, also called H1H583P variable regions) VH: QVQLVESGGGVVQPGMSLRLSCTASGFTFRRYGMHWVRQAPGKGLEWVAVIWYDGSNKYYADSVKGRFTITRDNSKNTLYLQMNSLRAEDTAIYFCASEITIGDWFDPRGQGTLVTVSS VL: AIQMTQSPSSLSASVGDRVTITCRASQGIRNDLGWFQQKPGKVPKLLIYAASTLHSGVPSRFSGSGFGTDFTLTISSLQPEDFATYYCLQDFNYPLTFGGGTKVEIK",–,–,–,–,–,–,–,–,–,–,–,–,–,–,–,–,–,–,–,–,Kd (Peptide J (pig PAR-2)): 190 nM; T1/2 (Peptide J (pig PAR-2)): 9.6 s
"H4H581P (antibody, human IgG4, V domains shown, also called mAb H4H581P; H1H581P variable regions) VH: QVQLVESGGGVVQPGRSLRLSCVASGFTFSRYGIHWVRQAPGKGLEWVIVISYDGINKYYADSVKGRFTISRDNSKNTVYLQMNSLRAEDTAVYYCAKGDFWSGYFDYWGQGTLVTVSS VL: DIVMTQTPLSSPVTLGQPASISCRSSQSLVHSDGNTYLSWLHQRPGQPPRLLIYKISNRFSGVPDRFSGSGAGTDFTLQISRVEAEDVGIYYCMQATQFPTFGGGTKVEIK",100%,100%,100%,100%,5%,4%,no binding (tested: 200 nM antibody),14%,0%,92%,15%,56%,3%,109%,49%,19%,0%,97%,117%,no binding (tested: 200 nM antibody),"% Rel Binding [12]: 46%; % Rel T1/2 [12]: 1%; % Rel Binding [13]: 19%; % Rel T1/2 [13]: 0%; % Rel Binding [14]: 102%; % Rel T1/2 [14]: 124%; % Rel Binding [15]: 91%; % Rel T1/2 [15]: 94%; IC50, NF-kB-luciferase, 10 nM Human Trypsin 1 (full length human PAR-2): 7.4 nM; IC50, NF-kB-luciferase, 200 nM Factor Xa (full length human PAR-2): 5.3 nM; IC50, NF-kB-luciferase, 750 nM Lung Tryptase (full length human PAR-2): 1.1 nM; % Rel Binding [16]: 78%; % Rel T1/2 [16]: 118%"
"H4H588N (antibody, human IgG4, V domains shown, also called H2M588N variable regions) VH: EVQLLESGGGLVQPGGSLRLSCAASGFTFSSYAMTWVRQAPGKGLYWVSAISGGRGSAYYADSVKGRFTISRDNSKNTLYLQMNSLRAEDTAVYYCAKEGDSGYDLAYWGRGTLVTVSS VL: DIQMTQSPSSLSASVGDRVTITCRARQGISNNLAWLQQKPGKAPKSLIYAASSLQSGIPSKFSGSGSGTYFTLTISSLQPEDFATYYCQQYKSSPLTFGGGTKVEIK",100%,100%,100%,100%,8%,5%,no binding (tested: 200 nM antibody),85%,8%,30%,0%,93%,70%,121%,60%,105%,42%,99%,253%,no binding (tested: 200 nM antibody),"% Rel Binding [12]: 52%; % Rel T1/2 [12]: 0%; % Rel Binding [13]: 83%; % Rel T1/2 [13]: 0%; % Rel Binding [14]: 67%; % Rel T1/2 [14]: 1%; % Rel Binding [15]: 121%; % Rel T1/2 [15]: 33%; IC50, NF-kB-luciferase, 10 nM Human Trypsin 1 (full length human PAR-2): 42.7 nM; IC50, NF-kB-luciferase, 200 nM Factor Xa (full length human PAR-2): 17.1 nM; IC50, NF-kB-luciferase, 750 nM Lung Tryptase (full length human PAR-2): 1.6 nM; binding result (Peptide J (pig PAR-2)): no binding; % Rel Binding [16]: 122%; % Rel T1/2 [16]: 100%"

# Source: patent US20110059095A1 (Regeneron, published 2011)
